Reference: patent US12258605B2, “Alkane oxidation by modified hydroxylases” (The California Institute of Technology, priority 2005, dated 2025)
Numbering of substitutions follows the chain as printed. Numbers in names are those of the source.

B1: 35-E11: P450 BM-3 variant, SEQ ID NO:7: 53-5H substitutions plus E464G and I710T (protein)
chain: TIKEMPQPKTFGELKNLPLLNTDKPVQALMKIADELGEIFKFEAPGCVTRYLSSQRLIKEACDESRFDKNLSQALKFFRDFSGDGLFTSWTHEINWKKAHNILLPSFSQQAMKGYHAMMVDIAVQLVQKWERLNADEHIEVSEDMTRLTLDTIGLCGFNYRFNSFYRDQPHPFIISMVRALDEVMNKLQRANPDDPAYDENKRQCQEDIKVMNDLVDKIIADRKARGEQSDDLLTQMLNGKDPETGEPLDDGNISYQIITFLIAGHETTSGLLSFALYFLVKNPHVLQKVVEEAARVLVDPVPSYKQVKQLKYVGMVLNEALRLWPTFPAFSLYAKEDTVLGGEYPLEKGDEVMVLIPQLHRDKTIWGDDVEEFRPERFENPSAIPQHAFKPFGNGQRACIGQQFALHEATLVLGMMLKHFDFEDHTNYELDIKETLTLKPEGFVVKAKSKKIPLGGIPSPSTGQSAKKVRKKAENAHNTPLLVLYGSNMGTAEGTARDLADIAMSKGFAPQVATLDSHAGNLPREGAVLIVTASYNGHPPDNAKQFVDWLDQASADEVKGVRYSVFGCGDKNWATTYQKVPAFIDETLAAKGAENIADRGEADASDDFEGTYEEWREHMWSDVAAYFNLDIENSEDNKSTLSLQFVDSAADMPLAKMHGAFSTNVVASKELQQPGSARSTRHLEIELPKEASYQEGDHLGVIPRNYEGTVNRVTARFGLDASQQIRLEAEEEKLAHLPLAKTVSVEELLQYVELQDPVTRTQLRAMAAKTVCPPHKVELEALLEKQAYKEQVLAKRLTMLELLEKYPACEMKFSEFIALLPSIRPRYYSISSSPRVDEKQASITVSVVSGEAWSGYGEYKGIASNYLAELQEGDTITCFISTPQSEFTLPKDPETPLIMVGPGTGVAPFRGFVQARKQLKEQGQSLGEAHLYFGCRSPHEDYLYQEELENAQSEGIITLHTAFSRMPNQPKTYVQHVMEQDGKKLIELLDQGAHFYICGDGSQMAPAVEATLMKSYADVHQVSEADARLWLQQLEEKGRYAKDVWAG
modifications: mutant P450 35-E11 protein sequence
B2: 20-D3: P450 BM-3 variant, SEQ ID NO:11; 35-E11 plus H285R (protein)
chain: B1 chain with H285R
modifications: mutant P450 20-D3 protein sequence
notes: 35-E11 plus H285R
B3: P450PMO: P450 BM-3 variant, SEQ ID NO:125; 7-7 plus G443A and D698G; propane monooxygenase (protein)
chain: B1 chain with L52I, A74E, S82G, L188P, I366V, G443A, D698G
modifications: Mutant P450PMO protein sequence
notes: 7-7 plus G443A and D698G; propane monooxygenase

Columns and labels:
Type in all cases: biochemical
[1] = Background NADPH oxidation rate in screen (cell lysate, no substrate); conditions: relative to 35-E11
Procedure: Libraries of mutants of 35-E11 were screened for phenotypes indicative of either increased product formation on small gaseous substrates slightly larger than methane. Additionally, they were screened for increased coupling of the consumption of NADPH reducing equivalents to product formation. Product formation was determined by measuring total amount of dimethyl ether hydroxylation while increased coupling was determined primarily by decreased background NADPH consumption rates (measured spectrophotometrically at 340 nm in the absence of substrate).
The relative dimethyl ether (DME) activity was measured, 1 hour after treatment with Purpald, as the average net and absorbance at 550 nm from 8 microtitre plate DME reactions of the mutant compared to 8 equivalent reactions of 35-E11. All values were normalized by measuring the P450 concentration in each well with CO binding. “Asteriks” indicate criteria used to select mutants from libraries for further characterization. The oxidation rate is measured as absorbance change at 340 nm over 1 minute upon the addition of NADPH to 8 microtitre plate wells containing P450-containing cell lysate and compared to 8 equivalent reactions of 35-E11. All values were normalized by measuring the P450 concentration in each well with CO binding. The total turnover number (TTN) was measured as the absorbance at 550 nm of methane reactions with each mutant after treatment with alcohol oxidase and […]

[2] = Kinetic measurements (Michaelis-Menten): propane; conditions: N.a. = not active
Procedure: (§1) Rate measurements. Initial rates of product formation were determined at 25° C. in 100 mM KPi pH 8.0 buffer using purified protein (100 nM) and a substrate concentration of 1.6 mM. In a 5 mL-vial, 20 μL of alkane solution (in ethanol) were dissolved in 400 μL KPi buffer, to which 500 μL enzyme solution at 100-200 nM was added. Reaction was initiated by adding 100 μL of 5 mM NADPH solution, followed by stirring at 300 rpm for 1 minute, and quenched by adding 200 μL chloroform and stirring at 800 rpm for 10 sec. Solutions were transferred to an Eppendorf tube, to which internal standard (10 μL 25 mM 1-bromohexane in ethanol) was added. Tubes were vortexed for 10 sec and centrifuged for 30 sec at 10,000 g. Organic phase was removed and analyzed by GC. For propane, reactions were carried out in a 5 mL-scale using 100-400 nM purified enzyme, propane-saturated buffer (propane concentration≈1.6 mM) and a final NADPH concentration of 500 μM. Reactions were stopped by addition of 200 μL H2SO4 conc. and analyzed by derivatization to alkyl nitrites followed by GC-ECD analysis as described below.
Kinetic measurements. […] Reactions were carried out in a 5 mL-scale using 100-400 nM purified enzyme and a final NADPH concentration of 1 mM. After 30 seconds, reactions were stopped by addition of 200 μL H2SO4 conc. and analyzed by GC as described below. Propane leakage during the experiment was neglected in reason of short measuring time. All measurements were performed in triplicate. Kinetic parameters were estimated from least-squares nonlinear regression to the Michaelis-Menten equation,
[formula] where v is the initial velocity, S is the substrate concentration, Vmax is the maximum velocity, and Km is the apparent Michaelis constant for the substrate.
Products from alkane reactions were identified and quantified by gas chromatography using authentic standards and calibration curves with internal standards. For the reactions with alkanes from pentane to decane, GC analyses were carried out using a Shimadzu GC-17A gas chromatograph, Agilent HP5 column (30 m×0.32 mm×0.1 μm film), 1 μL injection, FID detector, and the following separation program: 250° C. inlet, 250° C. detector, 50° C. oven for 3 min, 5° C./min gradient to 100° C., 25° C./min gradient to 230° C., and 230° C. for 3 min. For butane and propane (TTN) reactions, GC analyses were carried out using a Hewlett-Packard 5890 Series II Plus gas chromatograph, Supelco SPB-1 column (60 m×0.52 mm×0.5 μm film), 0.5 μL injection, FID detector, and the following separation program: 250° C. inlet, 275° C. detector, 80° C. oven for 2 min, 10° C./min gradient to 110° C., 25° C./min gradient to 275° C., and 275° C. for 2.5 min. […] Organic solutions were analyzed by FID-GC.

[3] = Kinetic constants for n-alkanes: pentane; conditions: N.a. = not active
Procedure: as §1
Products from alkane reactions were identified and quantified by gas chromatography using authentic standards and calibration curves with internal standards. For the reactions with alkanes from pentane to decane, GC analyses were carried out using a Shimadzu GC-17A gas chromatograph, Agilent HP5 column (30 m×0.32 mm×0.1 μm film), 1 μL injection, FID detector, and the following separation program: 250° C. inlet, 250° C. detector, 50° C. oven for 3 min, 5° C./min gradient to 100° C., 25° C./min gradient to 230° C., and 230° C. for 3 min. For butane and propane (TTN) reactions, GC analyses were carried out using a Hewlett-Packard 5890 Series II Plus gas chromatograph, Supelco SPB-1 column (60 m×0.52 mm×0.5 μm film), 0.5 μL injection, FID detector, and the following separation program: 250° C. inlet, 275° C. detector, 80° C. oven for 2 min, 10° C./min gradient to 110° C., 25° C./min gradient to 275° C., and 275° C. for 2.5 min. For ethane and propane (rate) reactions, analysis of reaction mixtures was carried out by derivatization to alkyl nitrites followed by GC-ECD analysis. For laurate, reaction product analysis was carried out by derivatization with N-methyl-N-trimethylsilylheptafluorobutyramide followed by extraction with hexane. Organic solutions were analyzed by FID-GC.
To further investigate the evolution of substrate specificity, kinetic constants for the C5 to C8 alkanes were determined from Michaelis-Menten plots (Table 19). The preference of 35E11 and its evolutionary predecessors for medium-chain alkanes is indicated by their high C8/C5 specificities ((kcat/Km)8/(kcat/Km)5˜100), where Km appears to be the major contributing factor. […]

Molecule | Relative background NADPH oxidation rate [1] | Km [2] [µM] | kcat [2] [min⁻¹] | Km [3] [µM] | kcat [3] [min⁻¹]
B1 | 1 | 820 ± 95 | 245 ± 25 | 1030 ± 57 | 760 ± 52
B2 | 1.6 | – | – | – | –
B3 | – | 170 | 185 ± 35 | 835 ± 117 | 150 ± 14
